# According to patent US20220251222A1, “IL-6Ralpha/IL-8R BISPECIFIC BINDING AGENTS FOR INHIBITING CANCER CELL MIGRATION” (The Johns Hopkins University, priority 2019, published 2022):
# T1: human IL-6Rα ECD (Homo sapiens, UniProt P08887)
# T1 construct: residues 89-303 of the mature protein; hexahistidine (C); made in house; host or cells: HEK 293F
# T1 sequence (P08887 108-322): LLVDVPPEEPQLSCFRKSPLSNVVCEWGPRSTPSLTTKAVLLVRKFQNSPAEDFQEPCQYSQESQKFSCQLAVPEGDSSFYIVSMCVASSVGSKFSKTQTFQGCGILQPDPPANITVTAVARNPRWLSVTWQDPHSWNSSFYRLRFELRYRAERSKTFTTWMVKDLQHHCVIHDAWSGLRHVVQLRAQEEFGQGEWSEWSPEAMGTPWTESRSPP
# T2: IL-6/IL-6Rα interaction (Homo sapiens, UniProt P08887)
# T2 construct: residues 89-303 of the mature protein; hexahistidine (C); made in house; host or cells: HEK 293F (IL-6Rα ECD)
# T2 sequence (P08887 108-322): T1 sequence (P08887 108-322)
# T3: IL-8R (Homo sapiens, UniProt P25025)
# T3 construct: expressed in transfected cells; host or cells: HEK 293T, lentiviral transduction (pCDH backbone)
# T3 sequence (P25025 1-360): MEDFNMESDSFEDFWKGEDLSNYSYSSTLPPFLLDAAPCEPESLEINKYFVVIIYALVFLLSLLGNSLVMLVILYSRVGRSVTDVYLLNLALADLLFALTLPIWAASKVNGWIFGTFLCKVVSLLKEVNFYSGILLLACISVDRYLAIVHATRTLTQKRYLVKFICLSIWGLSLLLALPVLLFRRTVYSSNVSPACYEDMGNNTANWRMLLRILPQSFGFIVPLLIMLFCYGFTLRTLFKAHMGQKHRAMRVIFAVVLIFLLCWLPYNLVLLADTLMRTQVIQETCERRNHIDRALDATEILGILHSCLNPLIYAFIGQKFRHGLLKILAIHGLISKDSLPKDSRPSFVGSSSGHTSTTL
# T4: IL-6 binding to IL-6Rα (Homo sapiens, UniProt P08887)
# T4 construct: expressed in transfected cells; host or cells: HEK 293T, lentiviral transduction (IL-6Rα+/IL-8R−)
# T4 sequence (P08887 20-468): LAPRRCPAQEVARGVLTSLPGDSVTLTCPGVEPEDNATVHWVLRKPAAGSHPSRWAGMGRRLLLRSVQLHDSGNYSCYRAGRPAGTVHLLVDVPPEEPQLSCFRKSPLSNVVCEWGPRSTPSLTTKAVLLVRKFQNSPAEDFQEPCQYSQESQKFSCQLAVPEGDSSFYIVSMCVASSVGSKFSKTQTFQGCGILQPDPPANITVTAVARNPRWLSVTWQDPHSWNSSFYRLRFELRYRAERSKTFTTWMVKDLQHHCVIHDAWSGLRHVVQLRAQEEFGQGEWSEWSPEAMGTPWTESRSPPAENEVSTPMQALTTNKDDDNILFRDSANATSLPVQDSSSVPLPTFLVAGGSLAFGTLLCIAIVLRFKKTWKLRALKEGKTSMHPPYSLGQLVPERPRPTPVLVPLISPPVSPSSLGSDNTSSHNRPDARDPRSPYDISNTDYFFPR
# B1: 10H2: anti-IL-8RB monoclonal antibody, expressed as hIgG1 (antibody, V domains shown)
# VH: EVQLVETGGRLVQPKGSLKLSCAVSGITFKTNAMNWVRQAPGKGLEWVARIRTKSYNYATYYADSVKDRFTISRDDSQSILYLQMNNLKTEDTAMYHCVREGRWGQGTLVTVSA
# VL: QAVVTQESALTTSPGETVTLTCRSSTGAVTTSNYANWVQEKPDHLFTGLIGGTNNRPPGVPARFSGSLIGDKAALTITGAQIEDEAIYFCALWYSNHLVFGGGTKLTVL
# B2: IL-6Rα ECD: recombinant human IL-6Rα extracellular domain, residues 89-303, biotinylated (protein)
# chain: LLVDVPPEEPQLSCFRKSPLSNVVCEWGPRSTPSLTTKAVLLVRKFQNSPAEDFQEPCQYSQESQKFSCQLAVPEGDSSFYIVSMCVASSVGSKFSKTQTFQGCGILQPDPPANITVTAVARNPRWLSVTWQDPHSWNSSFYRLRFELRYRAERSKTFTTWMVKDLQHHCVIHDAWSGLRHVVQLRAQEEFGQGEWSEWSPEAMGTPWTESRSPPLNDIFEAQKIEWHEHHHHHH
# Experiments:
# human IL-6Rα ECD = target: T1, human IL-6Rα ECD; test: Bio-layer interferometry (BLI) binding to immobilized IL-6Rα ECD; details: immobilized biotinylated IL-6Rα ECD, PBSA, 25° C., equilibrium titration
# Method: Biotinylated human IL-6Rα ECD was immobilized to streptavidin-coated tips for analysis on an Octet® Red96 BLI instrument (ForteBio). Less than 5 signal units (nm) of receptor was immobilized to minimize mass transfer effects. Tips were exposed to serial dilutions of the anti-IL-6R antibody tocilizumab, the anti-IL-8R antibody 10H2, BS1, or BS2 in a 96-well plate for 300 s and dissociation was measured for 600 s. Surface regeneration for all interactions was conducted using 15 s exposure to 0.1 M glycine pH 3.0. Experiments were carried out in PBSA (phosphate-buffered saline [PBS] pH 7.3 plus 0.1% bovine serum albumin [BSA, Thermo]) at 25° C. Data was visualized and processed using the Octet® Data Analysis software version 7.1 (ForteBio). Equilibrium titration curve fitting and equilibrium dissociation constant (KD) value determination was implemented in GraphPad Prism software using a first-order logistic model. Experiments were reproduced two times with similar results.
# IL-6/IL-6Rα interaction = target: T2, IL-6/IL-6Rα interaction; test: Yeast cell surface competition of IL-6/IL-6Rα binding; details: IL-6-displaying yeast, biotinylated IL-6Rα ECD 300 nM
# Method: Approximately 1×10^5 human IL-6-displaying yeast per well were plated in a 96-well plate and washed with PBSA. Yeast cells were incubated with saturating concentrations of biotinylated human IL-6Rα (300 nM) and serial dilutions of unlabeled competitor antibody (either the anti-IL-6R antibody tocilizumab, the anti-IL-8R antibody 10H2, BS1, or BS2) in PBSA for 2 hours at room temperature. Cells were then washed and stained with a 1:200 dilution of Alexa647-conjugated streptavidin (Thermo) in PBSA for 15 min at 4° C. Cells were washed again and assessed for human IL-6Rα binding on a CytoFLEX flow cytometer (Beckman Coulter). Background-subtracted fluorescent signal as a fraction of receptor subunit binding in the absence of competitor antibody was plotted. Curves were fitted to a first order logistic model and half maximal inhibitory concentrations (IC50s) were computed using GraphPad Prism. Assays were performed in triplicate and repeated two times with consistent results.
# IL-8R = target: T3, IL-8R; test: Cell surface binding on IL-6Rα−/IL-8R+ HEK 293T cells (flow cytometry); details: 2 hr at 4° C.
# Excerpt: GeneJuice (Sigma Aldrich) was used as the transfection reagent.
# Mean fluorescence intensity (MFI) of unstimulated cells was subtracted.
# IL-6 binding to IL-6Rα = target: T4, IL-6 binding to IL-6Rα; test: IL-6 cell surface binding inhibition on IL-6Rα+/IL-8R− HEK 293T cells; details: IL-6Rα+/IL-8R− 293 T cells, biotinylated IL-6 100 nM
# Method: Cells were then washed and incubated with 1:200 dilution of Alexa Fluor 647-conjugated streptavidin (Fisher Scientific, cat #: S21374) in PBSA for 15 min at 4° C. […] Curves were fitted to a first-order logistic model and IC50 values were calculated using GraphPad Prism data analysis software. Mean fluorescence intensity (MFI) of unstimulated cells was subtracted. […]
# [1] = tested on: IL-6-mediated phosphorylation of STAT3; test: IL-6 signaling inhibition assay (STAT3 phosphorylation) in HepG2 cells; type: cell-based, human; details: IL-6 10 nM, 20 min at 37° C.
# Method: HepG2 cells were then fixed with 1.6% PFA, permeabilized with methanol and incubated with 1:50 dilution of Alexa Fluor 647 conjugated anti-pSTAT3 antibody (BD Biosciences, clone 4/P-STAT3) in PBSA for 2 h at room temperature. […] IC50 values were calculated using a first order logistic fitting models in GraphPad Prism data analysis software. Mean fluorescence intensity (MFI) of unstimulated cells was subtracted. Experiments were conducted in triplicate and performed twice times with similar results.
# Human IL-6 = target: T5, Human IL-6 (Homo sapiens, UniProt P05231); test: Yeast cell surface affinity titration of IL-6Rα ECD on IL-6-displaying yeast; type: binding; details: 2 hours at room temperature, flow cytometry; read-out: KD of soluble IL-6Rα ECD on IL-6-displaying yeast
# T5 construct: Human IL-6 (residues 3-185) was cloned into the pCT302 vector; made in house; host or cells: yeast (surface display)
# Method: Human IL-6 (residues 3-185) was cloned into the pCT302 vector and presented on the surface of yeast, as described previously. (See Boder E T, Wittrup K D. Yeast surface display for screening combinatorial polypeptide libraries. Nat Biotechnol. 1997 June; 15(6):553-557. PMID: 9181578). Yeast displaying human IL-6 were incubated in PBSA containing serial dilutions of recombinant IL-6Rα ECD for 2 hours at room temperature. Cells were then washed and stained with a 1:200 dilution of Alexa647-conjugated streptavidin (Thermo) in PBSA for 15 min at 4° C. After a final wash, cells were analyzed for antibody binding using a CytoFLEX flow cytometer (Beckman Coulter).
# T5 sequence (P05231 30-212): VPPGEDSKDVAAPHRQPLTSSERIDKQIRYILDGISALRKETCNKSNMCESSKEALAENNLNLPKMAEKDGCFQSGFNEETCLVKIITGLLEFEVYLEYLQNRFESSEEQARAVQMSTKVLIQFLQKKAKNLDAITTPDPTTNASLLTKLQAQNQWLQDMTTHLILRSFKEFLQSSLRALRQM
Molecule,binding affinity (KD) to IL-6Rα via BLI (human IL-6Rα ECD),"IC50, inhibition of IL-6/IL-6Rα binding (IL-6/IL-6Rα interaction)","KD, binding to IL-8R on cells (IL-8R)","IC50, competition with IL-6 binding to IL-6Rα (IL-6 binding to IL-6Rα)","IC50, inhibition of STAT3 phosphorylation [1]",Kd (Human IL-6)
B1,did not engage IL-6Rα,did not compete,only recognized IL-8R^+ cells,no inhibitory effects,did not effect inhibition,–
B2,–,–,–,–,–,88 nM
